Data from article PMC4499870.

Tests used:
[1] = target: CytERM-EBFP2 (Aequorea victoria)
[2] = target: CytERM-moxBFP (Aequorea victoria)

In the case of CytERM-mTagBFP, the % cells with OSER structures (CytERM assay, n=69 cells) (CytERM-mTagBFP) was 43.5%.
CytERM-EBFP2 was tested, and the % cells with OSER structures (CytERM assay, n=138 cells) [1] was 63.7%.
Substance CytERM-moxBFP has a % cells with OSER structures (CytERM assay, n=109 cells) [2] of 0.9%.
